Measured values reported in patent US20100322948A1, “Bone morphogenetic protein (BMP)-binding domains of proteins of the repulsive guidance molecule (RGM) protein family and functional fragments thereof, and use of same” (ABBOTT GMBH & CO. KG, priority 2007, published 2010).

Molecular target: T1, BMP-4 (Homo sapiens, UniProt P12644)
T1 construct: purchased R&D Systems 314-BM
T1 sequence (P12644 293-408): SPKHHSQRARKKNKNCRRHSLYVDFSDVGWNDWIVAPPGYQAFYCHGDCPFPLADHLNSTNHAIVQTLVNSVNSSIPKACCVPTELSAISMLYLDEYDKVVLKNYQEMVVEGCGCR
Experiment: In vitro interaction test, variant A: immobilized BMP-4, detection of binding of RGMA-Fc fusion proteins
Conditions: Working Example 3, FIG. 5
Experimental: Test Method 4: In Vitro Interaction Test for Determining the Interaction between RGMA and BMP-2 and -4
The interaction tests were carried out as described below:
Variant A: Immobilization of the BMP-2/ or -4 Protein and Detection of the Binding of Various RGMA-Fc Fusion Proteins
1. Plate: • Immunoplate Cert. MaxiSorp F96 (Nunc, 439454)
Recombinant human BMP-2, Catalog No.: 355-BM, Company: R&D Systems; Recombinant human RGM A, R&D Systems; Prod. #2495-RM, or
Recombinant human BMP-4, Catalog No.: 314-BM, Company: R&D Systems; • Concentration: 10 μg/mL • Volume used: 2.5 μg/mL in Na2CO3; addition: 50 μL per well • 1 hour at 37° C. in damp chamber
3. Washing step: • Wash 3× with PBS/[…] Tween 20
4. Blocking: • 3% BSA in PBS/0.02% Tween, 1 hour at 37° C. in damp chamber; addition: 200 μL per well
RGMA-Fc fragments, • 1 μg/mL initial concentration, then dilution down to 1:2 using PBS/0.02% Tween20 • […] • 1 hour at 37° C. in damp chamber
6. Washing step: • Wash 3× with PBS/0.02% Tween 20
Biotin anti-human Fc (R&D-Systems), Catalog No.: 709065; 1 mg/mL; • 1:200 in 0.6% BAS/PBS-T (0.02% Tween) • Addition: 50 μL per well • 1 hour at 37° C. in damp chamber
8. Secondary antibody: Strep. POD (Roche); Catalog No.: 11089153001 • 500 U; 1:5000 in 0.6% BAS/PBS-T (0.02% Tween) • Addition: 50 μL per well • 1 hour at 37° C. in damp chamber
9. Washing step: • Wash 3× with PBS/0.02% Tween 20
ImmunoPure TMB substrate kit; Pierce, #34021 • Development period: approximately 1-30 minutes • 1:1 mixture of […]; addition: 50 μL per well
11. Stop: • 2.5 M H2SO4; addition: 50 μL per well
The test was conducted according to test method 4, variant A above, with immobilization of BMP-4 (1 mg/mL). The binding of the fusion proteins was detected using anti-human-Fc or anti-Myc anti-rabbit (Invitrogen) antibodies.
The test was conducted according to test method 4, variant A above, with immobilization of BMP-4 (1 mg/mL). The binding of the fusion proteins was detected using anti-human-antibodies.

binding to immobilized BMP-4, comparison among fragments: most strongly
B1: fragment #786: Fc fusion protein of human RGM A amino acids 47-168 (protein)
chain: PCKILKCNSEFWSATSGSHAPASDDTPEFCAALRSYALCTRRTARTCRGDLAYHSAVHGIEDLMSQHNCSKDGPTSQPRLRTLPPAGDSQERSDSPEICHYEKSFHKHSATPNYTHCGLFGD
modifications: left off: small tags and cut ends; a dimerising Fc or GST
binding to immobilized BMP-4 (detection anti-human-Fc or anti-Myc): Significant concentration-dependent binding
